Target: T1, N1-525 with an Histidine tag (full length measles virus nucleoprotein, Edmonston strain) (measles virus (Edmonston strain), UniProt P0DXN6 1-525)
T1 construct: also called full length N
T1 sequence: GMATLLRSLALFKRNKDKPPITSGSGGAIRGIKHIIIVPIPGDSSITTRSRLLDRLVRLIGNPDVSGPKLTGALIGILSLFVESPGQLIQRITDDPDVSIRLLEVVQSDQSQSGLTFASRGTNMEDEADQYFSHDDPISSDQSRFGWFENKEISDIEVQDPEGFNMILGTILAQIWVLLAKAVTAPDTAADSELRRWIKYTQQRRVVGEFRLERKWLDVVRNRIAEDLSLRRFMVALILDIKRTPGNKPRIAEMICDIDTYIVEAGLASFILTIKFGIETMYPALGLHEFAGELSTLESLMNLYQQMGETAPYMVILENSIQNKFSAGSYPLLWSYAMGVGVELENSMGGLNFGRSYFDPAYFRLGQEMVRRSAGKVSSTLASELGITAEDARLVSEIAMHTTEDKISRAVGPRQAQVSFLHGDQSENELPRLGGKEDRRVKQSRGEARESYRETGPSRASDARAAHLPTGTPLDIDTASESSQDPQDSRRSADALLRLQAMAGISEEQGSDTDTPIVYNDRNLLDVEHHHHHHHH
Assay: co-expression, TEV cleavage, SAXS and SEC-MALLS

B1: P1-50 with a TEV peptide amino acid sequence (first 50 amino acids of measles virus phosphoprotein, Edmonston strain, after TEV cleavage) (peptide)
peptide: MAEEQARHVKNGLECIRALKAEPIGSLAIEEAMAAWSEISDNPGQERATCENLYFQN
notes: Produced as a P1-50-TEV site-N fusion in E. coli and cleaved with TEV; also called P1-50 peptide; minimal P peptide
binding result: binds

Reference: US20190292229A1 (COMMISSARIAT A L ENERGIE ATOMIQUE ET AUX ENERGIES …, published 2019)
